Assay results as given in PMC11242946 (Molecules, 2024).

Target: T1, human ACE2 protein (human, UniProt Q9BYF1 18-740)
T1 construct: No catalogue number is printed; also called angiotensin-converting enzyme-2
Experiment: adsorption isotherm on protein-coupled resin (depletion, micro-BCA)
Conditions: both partners purified

T1 sequence (Q9BYF1 18-740): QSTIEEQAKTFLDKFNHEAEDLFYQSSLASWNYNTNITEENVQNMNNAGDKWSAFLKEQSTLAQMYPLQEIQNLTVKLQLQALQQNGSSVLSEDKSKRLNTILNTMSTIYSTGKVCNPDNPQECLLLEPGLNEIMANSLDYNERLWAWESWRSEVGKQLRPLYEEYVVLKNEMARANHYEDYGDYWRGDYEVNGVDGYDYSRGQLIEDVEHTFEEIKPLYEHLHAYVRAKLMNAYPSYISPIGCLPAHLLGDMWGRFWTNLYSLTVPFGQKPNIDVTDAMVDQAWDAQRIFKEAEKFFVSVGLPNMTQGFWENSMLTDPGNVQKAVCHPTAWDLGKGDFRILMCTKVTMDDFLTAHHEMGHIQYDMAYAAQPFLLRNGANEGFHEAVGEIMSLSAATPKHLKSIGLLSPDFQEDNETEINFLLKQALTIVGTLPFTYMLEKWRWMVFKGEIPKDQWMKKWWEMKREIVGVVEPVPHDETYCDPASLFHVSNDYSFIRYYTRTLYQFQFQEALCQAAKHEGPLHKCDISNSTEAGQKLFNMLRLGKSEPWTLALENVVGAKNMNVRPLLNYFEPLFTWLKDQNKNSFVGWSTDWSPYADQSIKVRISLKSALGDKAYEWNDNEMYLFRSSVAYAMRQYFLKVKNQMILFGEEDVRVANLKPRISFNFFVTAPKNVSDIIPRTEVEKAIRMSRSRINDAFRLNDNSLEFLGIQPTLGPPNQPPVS

KYPAY [functional peptide KYPAY (K5)] was tested. Which Kd did it give?
Its Kd is 12.5 µM.
